The record followed here is the supplement of paper PMC7877785.

± gives the uncertainty stated by the source.

The data set is described as follows: self-splicing fitness, log relative to wild type (ln ratio); higher = more splicing; Tetrahymena group I intron in knt gene, E. coli kanamycin selection, DiMSum; sequences stand for … in CUCUCU…GGAGGGAAAAGUUAUCAGGCAUGCACCUGGUAGCUAGUCUUUAAACCAAUAGAUUGCAUCGGUUUAAAAGGCAAGACCGUCAAAUUGCGGGAAAGGGGUCAACAGCCGUUCAGUACCAAGUCUCAGGGGAAACUUUGAGAUGGCCUUGCAAAGGGUAUGGUAAUAAGCUGACGGACAUGGUCCUAACCACGCAGCCAAGUCCUAAGUCAACAGAUCUUCUGUUGAUAUGGAUGCAGUUCACAGACUAAAUGUCGGUCGGGGAAGAUGUAUUCUUCUCAUAAGAUAUAGUCGGACCUCUCCUUAAUGGGAGCUAGCGGAUGAAGUGAUGCAACACUGGAGCCGCUGGGAACUAAUUUGUAUGCGAAAGUAUAUUGAUUAGUUUUGGAGUACUCGUGGUCG
In a few lines: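 DiMSum derived fitness as the error-weighted combination of fold changes across replicates, kanamycin versus no kanamycin, normalised to wild type. E. coli BL21(DE3) held the library, which randomised all eight P1ex-region intron nucleotides within the knt kanamycin-resistance gene on pET-22b(+). Six replicate transformations grew overnight at 37°C or 30°C on LB agar with or without 25 μg/mL kanamycin, also containing 100 μg/mL carbenicillin, 50 μM IPTG and 0.2% rhamnose, and pooled colonies were amplicon-sequenced on an Illumina HiSeq 2500.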

Turning to CUACAGCAAUAUUACGCUUU, the “self-splicing fitness (ln)” value runs as follows: (30 °C) -3.79 ± 0.25; (37 °C) -2.38 ± 0.16.
In the same order, the values of CACAAGCAAUAUUACGACGA are -0.927 ± 0.11 and -0.995 ± 0.12.
In the same order, the values of UAUUAGCAAUAUUACGACCG are 0.0866 ± 0.13 and -0.0729 ± 0.16.
In the same order, the values of GUGGAGCAAUAUUACGCCUU are -2.3 ± 0.31 and -1.09 ± 0.22.
Turning to GUGUAGCAAUAUUACGAAGA, the “self-splicing fitness (ln)” value (37 °C) is -1.38 ± 0.39.
On the same count and under the same terms, the same measure for CUUUAGCAAUAUUACGGAGU: -2.46 ± 0.48.
As to UAUGAGCAAUAUUACGCAAU, the “self-splicing fitness (ln)” value by setting is: (30 °C) -3.54 ± 0.25; (37 °C) -2.32 ± 0.18.
As to CGAAAGCAAUAUUACGACGA, the “self-splicing fitness (ln)” value by setting is: (30 °C) -0.59 ± 0.094; (37 °C) 0.312 ± 0.09.
In the same order, the values of AUAUAGCAAUAUUACGGCCC are -0.72 ± 0.15 and -0.205 ± 0.24.
In the same order, the values of UAGCAGCAAUAUUACGGACC are -1.74 ± 0.18 and -1.67 ± 0.29.
In the same order, the values of UUUAAGCAAUAUUACGUGAU are -2.59 ± 0.15 and -1.67 ± 0.21.
As to ACUUAGCAAUAUUACGGGCU, the “self-splicing fitness (ln)” value was -1.74 ± 0.084 (30 °C) and -0.866 ± 0.11 (37 °C).
For UUGCAGCAAUAUUACGAGAA, the “self-splicing fitness (ln)” value (37 °C) is -1.47 ± 0.34.
As for GAAUAGCAAUAUUACGAGUU, the “self-splicing fitness (ln)” value by setting is: (30 °C) -2.2 ± 0.084; (37 °C) -0.978 ± 0.093.
In the same order, the values of AUUCAGCAAUAUUACGACAU are 0.206 ± 0.012 and 0.365 ± 0.032.
In the same order, the values of CUAGAGCAAUAUUACGCGAU are -0.892 ± 0.084 and -0.253 ± 0.11.
In the same order, the values of AGAAAGCAAUAUUACGAUAU are -1.07 ± 0.096 and -0.792 ± 0.11.
Consider AUUGAGCAAUAUUACGAACA, for which the “self-splicing fitness (ln)” value is, setting by setting: (30 °C) -3.6 ± 0.32; (37 °C) -2.75 ± 0.25.
In the same order, the values of AAAAAGCAAUAUUACGAUAC are -2.28 ± 0.16 and -0.696 ± 0.13.
In the same order, the values of AUUUAGCAAUAUUACGUUUC are -2.86 ± 0.27 and -1.91 ± 0.34.
In the same order, the values of UCGGAGCAAUAUUACGUUCU are -3.17 ± 0.2 and -1.41 ± 0.4.
For the sequence CGUAAGCAAUAUUACGCUUG, the “self-splicing fitness (ln)” value runs as follows: (30 °C) -3.54 ± 0.18; (37 °C) -0.367 ± 0.14.
In the case of AACCAGCAAUAUUACGUCGA, the “self-splicing fitness (ln)” value runs as follows: (30 °C) -0.87 ± 0.071; (37 °C) -0.757 ± 0.07.
Consider CUAGAGCAAUAUUACGAUCU, for which the “self-splicing fitness (ln)” value was -4.31 ± 0.34 (30 °C) and -2.29 ± 0.34 (37 °C).
For the sequence CAUGAGCAAUAUUACGUAAA, the “self-splicing fitness (ln)” value is -3.16 ± 0.15 (30 °C) and -3.43 ± 0.32 (37 °C).
In the same order, the values of ACUCAGCAAUAUUACGGAUG are -1.36 ± 0.068 and -0.69 ± 0.098.
In the same order, the values of ACUGAGCAAUAUUACGUCGC are -3.35 ± 0.26 and -2.18 ± 0.21.
In the same order, the values of GUGGAGCAAUAUUACGCUCA are -1.19 ± 0.26 and -1.1 ± 0.26.
Take UUAAAGCAAUAUUACGCGCG: the “self-splicing fitness (ln)” value by setting is: (30 °C) -0.058 ± 0.12; (37 °C) 0.00297 ± 0.16.
In the same order, the values of UGAUAGCAAUAUUACGGUUA are -0.585 ± 0.067 and -0.467 ± 0.085.
For GUGGAGCAAUAUUACGAAUC, the “self-splicing fitness (ln)” value was -3.4 ± 0.24 (30 °C) and -1.43 ± 0.26 (37 °C).
Take CUAUAGCAAUAUUACGGGAC: the “self-splicing fitness (ln)” value (30 °C) was -2.51 ± 0.3.
With CAGUAGCAAUAUUACGGGGU, the “self-splicing fitness (ln)” value by setting is: (30 °C) -4.35 ± 0.32; (37 °C) -2.1 ± 0.22.
As for CGACAGCAAUAUUACGGAUG, the “self-splicing fitness (ln)” value (30 °C) was -0.977 ± 0.051 and the “self-splicing fitness (ln)” value (37 °C) is -0.0449 ± 0.059.
In the same order, the values of GGUUAGCAAUAUUACGUUCU are -0.833 ± 0.042 and -0.236 ± 0.052.
In the same order, the values of UUACAGCAAUAUUACGUACC are -1.19 ± 0.21 and -0.649 ± 0.33.
In the same order, the values of UGGAAGCAAUAUUACGGAAG are -1.69 ± 0.12 and -1.46 ± 0.17.
For the sequence GCCCAGCAAUAUUACGCGAG, the “self-splicing fitness (ln)” value by setting is: (30 °C) -2.72 ± 0.11; (37 °C) -1.73 ± 0.13.
As for AGGGAGCAAUAUUACGGUCG, the “self-splicing fitness (ln)” value reads like this: (30 °C) -2.2 ± 0.31; (37 °C) -2.83 ± 0.48.
In the same order, the values of ACCGAGCAAUAUUACGCUUU are -3.06 ± 0.28 and -1.56 ± 0.15.
For GACAAGCAAUAUUACGCGAU, the “self-splicing fitness (ln)” value (30 °C) is -2.96 ± 0.13 and the “self-splicing fitness (ln)” value (37 °C) was -1.02 ± 0.099.
In the same order, the values of GGACAGCAAUAUUACGCACU are -1.12 ± 0.086 and -0.6 ± 0.13.
As for GAAGAGCAAUAUUACGAAUU, the “self-splicing fitness (ln)” value was -3.24 ± 0.18 (30 °C) and -2.21 ± 0.23 (37 °C).
In the same order, the values of AUCCAGCAAUAUUACGCGCG are -2 ± 0.074 and -0.8 ± 0.1.
In the same order, the values of UAAAAGCAAUAUUACGAAUU are -3.12 ± 0.15 and -1.95 ± 0.18.
In the same order, the values of UCGCAGCAAUAUUACGUUUU are -4.52 ± 0.36 and -2.9 ± 0.23.
On to GCACAGCAAUAUUACGCCGA, for which the “self-splicing fitness (ln)” value (30 °C) is -2.19 ± 0.22 and the “self-splicing fitness (ln)” value (37 °C) was -1.61 ± 0.17.
For CCCAAGCAAUAUUACGCGUA, the “self-splicing fitness (ln)” value (30 °C) was -3.43 ± 0.2 and the “self-splicing fitness (ln)” value (37 °C) is -1.29 ± 0.17.
In the same order, the values of GACAAGCAAUAUUACGUUUA are -1.66 ± 0.084 and -1.58 ± 0.089.
CAUGAGCAAUAUUACGGCUA: the “self-splicing fitness (ln)” value is -2.75 ± 0.45 (30 °C) and -1.87 ± 0.2 (37 °C).
As for AUUGAGCAAUAUUACGAGCC, the “self-splicing fitness (ln)” value is -3.44 ± 0.26 (30 °C) and -2.48 ± 0.3 (37 °C).
In the case of CAUGAGCAAUAUUACGUAUG, the “self-splicing fitness (ln)” value reads like this: (30 °C) -2.65 ± 0.21; (37 °C) -2.65 ± 0.22.
On to UUGGAGCAAUAUUACGAAUA, for which the “self-splicing fitness (ln)” value (37 °C) was -2.1 ± 0.46.
For UUGAAGCAAUAUUACGGUUU, the “self-splicing fitness (ln)” value is, setting by setting: (30 °C) -2.88 ± 0.11; (37 °C) -2.69 ± 0.19.
In the same order, the values of UAAUAGCAAUAUUACGCUUG are -0.7 ± 0.082 and -0.621 ± 0.096.
As for AAUGAGCAAUAUUACGCUGC, the “self-splicing fitness (ln)” value (37 °C) was -1.24 ± 0.24.
CGGUAGCAAUAUUACGUGAA: the “self-splicing fitness (ln)” value is, setting by setting: (30 °C) -2.67 ± 0.18; (37 °C) -1.52 ± 0.19.
In the same order, the values of CCCCAGCAAUAUUACGAUCA are -1.97 ± 0.12 and -2.68 ± 0.23.
As to UAGGAGCAAUAUUACGCGGC, the “self-splicing fitness (ln)” value (30 °C) was -2.42 ± 0.39.
For the sequence UUCGAGCAAUAUUACGGUGU, the “self-splicing fitness (ln)” value (37 °C) is -3.35 ± 0.42.
Take GUAGAGCAAUAUUACGUGAA: the “self-splicing fitness (ln)” value (30 °C) is -1.86 ± 0.17 and the “self-splicing fitness (ln)” value (37 °C) is -1.87 ± 0.2.
Turning to CACUAGCAAUAUUACGGGGC, the “self-splicing fitness (ln)” value was -3.4 ± 0.17 (30 °C) and -2.23 ± 0.14 (37 °C).
In the same order, the values of ACCGAGCAAUAUUACGACAU are -2.219 ± 0.015 and -1.3 ± 0.033.
In the same order, the values of AUUCAGCAAUAUUACGUGUA are -1.7 ± 0.11 and -1.02 ± 0.092.
In the same order, the values of AGCAAGCAAUAUUACGAAGG are -4.66 ± 0.36 and -1.54 ± 0.22.
As for UGGAAGCAAUAUUACGGCGU, the “self-splicing fitness (ln)” value by setting is: (30 °C) -1.16 ± 0.13; (37 °C) 0.0292 ± 0.12.
UUCGAGCAAUAUUACGCUUG: the “self-splicing fitness (ln)” value (30 °C) was -3.26 ± 0.41.
In the case of AUCUAGCAAUAUUACGGAAC, the “self-splicing fitness (ln)” value is, setting by setting: (30 °C) -4.03 ± 0.37; (37 °C) -1.75 ± 0.24.
In the same order, the values of UCUAAGCAAUAUUACGAAGG are -2.53 ± 0.15 and -0.99 ± 0.16.
In the same order, the values of GCGCAGCAAUAUUACGCUAG are -3.26 ± 0.28 and -2.15 ± 0.33.
In the same order, the values of AUGGAGCAAUAUUACGCAUG are -2.5 ± 0.34 and -2.36 ± 0.25.
For the sequence AAAUAGCAAUAUUACGUCUA, the “self-splicing fitness (ln)” value (30 °C) is -0.412 ± 0.077 and the “self-splicing fitness (ln)” value (37 °C) is 0.205 ± 0.084.
In the same order, the values of CAAUAGCAAUAUUACGUCCU are -3.78 ± 0.42 and -2.4 ± 0.28.
In the case of CGCGAGCAAUAUUACGUCCA, the “self-splicing fitness (ln)” value (37 °C) was -1.96 ± 0.32.
For the sequence UACGAGCAAUAUUACGUAAU, the “self-splicing fitness (ln)” value by setting is: (30 °C) -4.22 ± 0.31; (37 °C) -1.43 ± 0.19.
In the same order, the values of AAUCAGCAAUAUUACGAAUU are -0.152 ± 0.1 and 0.193 ± 0.13.
For the sequence CAGAAGCAAUAUUACGCGAA, the “self-splicing fitness (ln)” value (37 °C) is -1.94 ± 0.23.
For UGACAGCAAUAUUACGCAUG, the “self-splicing fitness (ln)” value by setting is: (30 °C) -1.03 ± 0.055; (37 °C) -0.328 ± 0.061.
